Reference: IntAct's records for PubMed 21965663

Each substance was assayed against dyr1a_mouse Dyrk1a (UniProt Q61214).

Chain of Calcipressin-1 (Homo sapiens), P53805-2 S112A (P53805 other isoform, or with tags, fused parts or gaps S112A): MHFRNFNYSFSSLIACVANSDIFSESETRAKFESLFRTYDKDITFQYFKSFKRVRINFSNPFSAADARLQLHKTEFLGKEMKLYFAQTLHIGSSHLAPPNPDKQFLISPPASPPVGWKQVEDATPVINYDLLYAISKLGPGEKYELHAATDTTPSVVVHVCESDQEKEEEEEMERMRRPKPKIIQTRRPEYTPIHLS
Chain of Calcipressin-1 (Homo sapiens), P53805-2 S112A;T192A (P53805 other isoform, or with tags, fused parts or gaps S112A;T192A): as the sequence (P53805 other isoform, or with tags, fused parts or gaps S112A) above
Chain of Calcipressin-1 (Homo sapiens), P53805-2 T192A (P53805 other isoform, or with tags, fused parts or gaps T192A): as the sequence (P53805 other isoform, or with tags, fused parts or gaps S112A) above

Substance | effect of a mutation on the interaction
Calcipressin-1 (Homo sapiens), P53805-2 S112A;T192A | disrupting interaction
Calcipressin-1 (Homo sapiens), P53805-2 S112A | decreasing interaction
Calcipressin-1 (Homo sapiens), P53805-2 T192A | decreasing interaction
